The results in this text go back to US20190134153A1, “IMMUNOMODULATORY EFFECT OF INHALED KINASE INHIBITOR PEPTIDES IN LUNG” (MOERAE MATRIX, INC., priority 2017, published 2019).

What all share (test): Kinase Profiling Assay
Common to all, as to type: biochemical
What all share (details): 100 μM

In test [1] the target is MARK1(h) (Homo sapiens, UniProt Q9P0L2).
The target in test [2] is T1, LKB1(h) (Homo sapiens, UniProt Q15831).
T1 sequence (Q15831 1-433): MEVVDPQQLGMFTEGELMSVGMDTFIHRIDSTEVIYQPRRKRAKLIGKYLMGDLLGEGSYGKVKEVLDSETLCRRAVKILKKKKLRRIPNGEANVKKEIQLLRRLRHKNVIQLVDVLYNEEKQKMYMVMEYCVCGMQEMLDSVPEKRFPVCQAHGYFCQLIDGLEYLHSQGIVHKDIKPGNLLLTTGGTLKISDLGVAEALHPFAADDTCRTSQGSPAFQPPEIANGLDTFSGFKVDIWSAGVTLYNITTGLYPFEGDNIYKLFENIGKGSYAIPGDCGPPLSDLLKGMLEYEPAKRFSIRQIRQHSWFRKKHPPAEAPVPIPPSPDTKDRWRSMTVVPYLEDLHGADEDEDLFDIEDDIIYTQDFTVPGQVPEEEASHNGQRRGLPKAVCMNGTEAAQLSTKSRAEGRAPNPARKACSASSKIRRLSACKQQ
T1 sequence (Q7RTN6 1-431 partner): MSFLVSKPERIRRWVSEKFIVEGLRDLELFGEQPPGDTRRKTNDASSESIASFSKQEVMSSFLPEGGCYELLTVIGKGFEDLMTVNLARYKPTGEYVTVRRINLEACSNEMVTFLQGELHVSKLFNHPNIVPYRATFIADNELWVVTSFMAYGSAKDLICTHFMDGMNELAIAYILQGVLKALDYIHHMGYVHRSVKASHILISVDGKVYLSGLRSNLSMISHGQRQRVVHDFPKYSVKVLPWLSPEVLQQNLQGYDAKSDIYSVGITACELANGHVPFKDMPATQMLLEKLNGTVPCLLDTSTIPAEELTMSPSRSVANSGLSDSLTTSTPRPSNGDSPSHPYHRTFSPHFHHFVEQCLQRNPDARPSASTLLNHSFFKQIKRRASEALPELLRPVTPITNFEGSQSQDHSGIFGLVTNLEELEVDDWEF
T1 sequence (Q9Y376 1-341 partner): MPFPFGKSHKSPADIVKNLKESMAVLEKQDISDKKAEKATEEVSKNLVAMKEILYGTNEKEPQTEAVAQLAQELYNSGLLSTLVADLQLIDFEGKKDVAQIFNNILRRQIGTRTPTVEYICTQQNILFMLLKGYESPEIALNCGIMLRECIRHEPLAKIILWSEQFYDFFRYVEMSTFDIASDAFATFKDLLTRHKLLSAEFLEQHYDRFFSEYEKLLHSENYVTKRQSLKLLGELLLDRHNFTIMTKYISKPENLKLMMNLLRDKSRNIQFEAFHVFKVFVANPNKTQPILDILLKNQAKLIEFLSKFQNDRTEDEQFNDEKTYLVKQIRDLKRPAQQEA

Test [3] deals with PKBα(h) (Homo sapiens, UniProt P31749).
Test [4] concerns the target Fms(h) (Homo sapiens, UniProt P07333).
The target in test [5] is PRK2(h) (Homo sapiens, UniProt Q16513).
Test [6] addresses HIPK2(h) (Homo sapiens, UniProt Q9H2X6).
For test [7], the target named is T2, TSSK1(h) (Homo sapiens, UniProt Q9BXA7).
T2 sequence (Q9BXA7 1-367): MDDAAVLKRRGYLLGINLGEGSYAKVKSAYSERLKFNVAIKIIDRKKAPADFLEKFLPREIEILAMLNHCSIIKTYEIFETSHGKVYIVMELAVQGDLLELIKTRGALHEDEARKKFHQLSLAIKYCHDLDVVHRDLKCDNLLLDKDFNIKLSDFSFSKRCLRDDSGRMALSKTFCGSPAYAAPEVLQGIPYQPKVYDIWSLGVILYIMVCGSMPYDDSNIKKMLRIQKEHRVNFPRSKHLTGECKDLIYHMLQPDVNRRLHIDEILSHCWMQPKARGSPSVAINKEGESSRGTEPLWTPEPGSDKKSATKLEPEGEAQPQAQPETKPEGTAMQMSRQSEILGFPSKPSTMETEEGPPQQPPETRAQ

The target of test [8] is PKCα(h) (Homo sapiens, UniProt P17252).
Test [9] has as its target JNK3(h) (Homo sapiens, UniProt P53779).
Test [10] has as its target EGFR(L861Q)(h) (Homo sapiens, UniProt P00533, L861Q).
The target of test [11] is Hck(h) (Homo sapiens, UniProt P08631).
Test [12] addresses Fes(h) (Homo sapiens, UniProt P07332).
The target in test [13] is PKCθ(h) (Homo sapiens, UniProt Q04759).
The target in test [14] is LOK(h) (Homo sapiens, UniProt O94804).
The target of test [15] is NEK6(h) (Homo sapiens, UniProt Q9HC98).
Test [16] concerns the target ROCK-I(h) (Homo sapiens, UniProt Q13464).

LOK(h), sequence (O94804 whole entry): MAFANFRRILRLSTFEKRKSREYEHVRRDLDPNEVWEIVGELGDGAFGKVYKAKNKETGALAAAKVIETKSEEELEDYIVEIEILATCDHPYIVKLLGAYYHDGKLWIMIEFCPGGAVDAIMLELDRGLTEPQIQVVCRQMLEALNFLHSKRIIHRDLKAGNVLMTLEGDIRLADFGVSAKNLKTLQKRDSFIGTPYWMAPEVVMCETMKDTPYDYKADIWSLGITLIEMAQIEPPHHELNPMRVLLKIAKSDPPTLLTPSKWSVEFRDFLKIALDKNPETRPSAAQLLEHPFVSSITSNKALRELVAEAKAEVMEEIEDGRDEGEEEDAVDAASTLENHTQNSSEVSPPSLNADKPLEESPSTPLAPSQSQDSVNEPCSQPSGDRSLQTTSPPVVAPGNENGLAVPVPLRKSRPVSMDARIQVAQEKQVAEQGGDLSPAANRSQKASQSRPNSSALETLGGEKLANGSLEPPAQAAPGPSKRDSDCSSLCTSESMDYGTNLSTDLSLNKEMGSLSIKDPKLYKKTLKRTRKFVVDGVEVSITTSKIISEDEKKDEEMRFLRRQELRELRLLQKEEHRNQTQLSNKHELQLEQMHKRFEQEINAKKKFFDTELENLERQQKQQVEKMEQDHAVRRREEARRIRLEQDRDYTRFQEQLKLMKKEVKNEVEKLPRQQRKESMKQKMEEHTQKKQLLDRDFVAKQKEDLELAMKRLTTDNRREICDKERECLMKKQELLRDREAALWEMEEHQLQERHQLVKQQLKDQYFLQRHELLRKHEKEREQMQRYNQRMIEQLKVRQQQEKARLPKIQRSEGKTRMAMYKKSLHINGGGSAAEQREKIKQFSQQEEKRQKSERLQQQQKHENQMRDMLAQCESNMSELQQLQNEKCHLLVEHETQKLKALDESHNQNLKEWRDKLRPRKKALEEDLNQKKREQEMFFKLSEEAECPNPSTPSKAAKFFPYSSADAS
MARK1(h), sequence (Q9P0L2 whole entry): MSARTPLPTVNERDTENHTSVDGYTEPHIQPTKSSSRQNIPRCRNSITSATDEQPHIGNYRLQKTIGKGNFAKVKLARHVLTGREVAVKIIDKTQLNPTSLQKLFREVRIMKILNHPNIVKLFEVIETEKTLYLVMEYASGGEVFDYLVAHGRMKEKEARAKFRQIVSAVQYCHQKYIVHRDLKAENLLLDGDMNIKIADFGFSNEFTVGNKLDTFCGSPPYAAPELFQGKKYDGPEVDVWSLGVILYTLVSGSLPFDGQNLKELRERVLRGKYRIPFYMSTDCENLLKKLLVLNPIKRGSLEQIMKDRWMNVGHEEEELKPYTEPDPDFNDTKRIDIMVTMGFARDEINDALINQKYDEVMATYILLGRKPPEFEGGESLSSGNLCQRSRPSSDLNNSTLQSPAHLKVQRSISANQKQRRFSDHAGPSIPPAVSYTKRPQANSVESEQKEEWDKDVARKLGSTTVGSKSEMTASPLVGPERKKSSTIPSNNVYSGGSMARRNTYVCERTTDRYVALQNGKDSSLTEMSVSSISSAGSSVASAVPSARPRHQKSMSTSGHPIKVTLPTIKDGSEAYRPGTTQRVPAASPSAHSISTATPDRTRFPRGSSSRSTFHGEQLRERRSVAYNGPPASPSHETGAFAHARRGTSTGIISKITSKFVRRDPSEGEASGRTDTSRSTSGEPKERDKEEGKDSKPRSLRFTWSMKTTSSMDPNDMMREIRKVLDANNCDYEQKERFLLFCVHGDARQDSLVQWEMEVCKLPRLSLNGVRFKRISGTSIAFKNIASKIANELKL
HIPK2(h), sequence (Q9H2X6 whole entry): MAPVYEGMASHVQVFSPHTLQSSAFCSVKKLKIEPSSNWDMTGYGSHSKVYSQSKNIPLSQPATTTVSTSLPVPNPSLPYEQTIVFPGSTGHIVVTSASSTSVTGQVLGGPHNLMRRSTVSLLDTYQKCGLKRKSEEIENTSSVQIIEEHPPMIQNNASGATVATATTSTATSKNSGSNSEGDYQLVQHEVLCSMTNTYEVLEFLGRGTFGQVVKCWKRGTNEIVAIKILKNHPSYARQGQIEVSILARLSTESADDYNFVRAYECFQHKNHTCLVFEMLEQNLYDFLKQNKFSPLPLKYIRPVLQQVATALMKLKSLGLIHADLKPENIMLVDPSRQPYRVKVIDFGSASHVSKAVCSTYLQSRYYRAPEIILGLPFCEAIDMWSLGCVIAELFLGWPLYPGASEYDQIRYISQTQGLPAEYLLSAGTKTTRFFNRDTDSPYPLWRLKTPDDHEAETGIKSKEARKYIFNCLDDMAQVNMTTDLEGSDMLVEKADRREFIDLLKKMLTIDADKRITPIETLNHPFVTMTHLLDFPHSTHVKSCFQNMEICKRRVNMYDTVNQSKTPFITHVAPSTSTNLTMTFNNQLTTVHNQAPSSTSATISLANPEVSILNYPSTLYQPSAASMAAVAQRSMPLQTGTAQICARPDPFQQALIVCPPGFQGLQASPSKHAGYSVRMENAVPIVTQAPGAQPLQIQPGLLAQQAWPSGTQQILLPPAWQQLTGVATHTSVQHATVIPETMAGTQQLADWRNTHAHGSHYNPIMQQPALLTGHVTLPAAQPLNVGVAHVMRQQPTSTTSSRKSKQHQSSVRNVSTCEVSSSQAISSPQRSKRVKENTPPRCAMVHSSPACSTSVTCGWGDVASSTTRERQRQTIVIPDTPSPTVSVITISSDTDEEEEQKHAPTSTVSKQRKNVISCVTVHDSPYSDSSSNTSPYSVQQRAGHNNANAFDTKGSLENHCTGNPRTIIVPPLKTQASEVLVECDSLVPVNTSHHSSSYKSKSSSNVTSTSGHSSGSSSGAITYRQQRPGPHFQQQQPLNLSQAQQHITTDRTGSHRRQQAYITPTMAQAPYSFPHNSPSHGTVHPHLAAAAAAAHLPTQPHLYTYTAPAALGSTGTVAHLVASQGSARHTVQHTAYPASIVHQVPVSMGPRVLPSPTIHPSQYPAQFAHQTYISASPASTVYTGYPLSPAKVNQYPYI
NEK6(h), sequence (Q9HC98 whole entry): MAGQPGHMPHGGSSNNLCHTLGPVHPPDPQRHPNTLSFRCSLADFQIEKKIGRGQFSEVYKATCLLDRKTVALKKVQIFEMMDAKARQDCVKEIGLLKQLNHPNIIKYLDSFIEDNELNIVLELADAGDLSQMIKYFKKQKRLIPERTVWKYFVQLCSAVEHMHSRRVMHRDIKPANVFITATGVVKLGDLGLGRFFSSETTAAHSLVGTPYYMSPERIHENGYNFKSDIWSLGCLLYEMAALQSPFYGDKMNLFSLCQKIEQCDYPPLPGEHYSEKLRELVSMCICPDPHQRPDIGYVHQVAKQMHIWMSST
PKBα(h), sequence (P31749 whole entry): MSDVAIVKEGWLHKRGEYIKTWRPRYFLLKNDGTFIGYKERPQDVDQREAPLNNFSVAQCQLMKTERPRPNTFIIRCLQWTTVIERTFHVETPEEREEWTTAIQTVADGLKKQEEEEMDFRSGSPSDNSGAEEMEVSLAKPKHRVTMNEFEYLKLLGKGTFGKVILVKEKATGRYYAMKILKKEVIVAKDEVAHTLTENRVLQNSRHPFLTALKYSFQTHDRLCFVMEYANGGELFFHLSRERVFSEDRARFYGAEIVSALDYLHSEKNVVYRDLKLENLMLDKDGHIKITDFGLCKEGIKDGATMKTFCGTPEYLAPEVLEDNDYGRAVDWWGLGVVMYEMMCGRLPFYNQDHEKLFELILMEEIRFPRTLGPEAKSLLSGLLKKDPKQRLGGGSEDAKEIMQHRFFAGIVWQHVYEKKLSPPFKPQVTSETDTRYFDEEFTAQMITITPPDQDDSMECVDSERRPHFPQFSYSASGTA
PKCθ(h), sequence (Q04759 whole entry): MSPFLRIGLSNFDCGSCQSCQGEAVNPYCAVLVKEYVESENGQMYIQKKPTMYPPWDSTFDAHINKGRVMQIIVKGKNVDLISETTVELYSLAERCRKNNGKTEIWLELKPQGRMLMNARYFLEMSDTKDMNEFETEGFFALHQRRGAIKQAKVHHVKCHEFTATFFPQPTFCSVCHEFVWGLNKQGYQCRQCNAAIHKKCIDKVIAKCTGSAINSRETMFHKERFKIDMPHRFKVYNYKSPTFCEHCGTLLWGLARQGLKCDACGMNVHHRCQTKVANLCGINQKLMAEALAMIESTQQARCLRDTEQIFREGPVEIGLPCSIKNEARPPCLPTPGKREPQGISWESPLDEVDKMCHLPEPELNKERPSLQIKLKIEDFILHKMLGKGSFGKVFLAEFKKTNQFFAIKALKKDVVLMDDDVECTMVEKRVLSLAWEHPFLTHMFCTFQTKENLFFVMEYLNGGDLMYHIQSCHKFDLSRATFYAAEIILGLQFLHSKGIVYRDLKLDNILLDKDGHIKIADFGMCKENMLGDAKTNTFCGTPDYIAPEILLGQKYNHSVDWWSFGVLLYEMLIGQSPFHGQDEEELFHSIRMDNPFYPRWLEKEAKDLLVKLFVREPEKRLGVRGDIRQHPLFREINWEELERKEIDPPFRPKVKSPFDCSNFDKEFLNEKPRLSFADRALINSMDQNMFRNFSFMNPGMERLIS
Hck(h), sequence (P08631 whole entry): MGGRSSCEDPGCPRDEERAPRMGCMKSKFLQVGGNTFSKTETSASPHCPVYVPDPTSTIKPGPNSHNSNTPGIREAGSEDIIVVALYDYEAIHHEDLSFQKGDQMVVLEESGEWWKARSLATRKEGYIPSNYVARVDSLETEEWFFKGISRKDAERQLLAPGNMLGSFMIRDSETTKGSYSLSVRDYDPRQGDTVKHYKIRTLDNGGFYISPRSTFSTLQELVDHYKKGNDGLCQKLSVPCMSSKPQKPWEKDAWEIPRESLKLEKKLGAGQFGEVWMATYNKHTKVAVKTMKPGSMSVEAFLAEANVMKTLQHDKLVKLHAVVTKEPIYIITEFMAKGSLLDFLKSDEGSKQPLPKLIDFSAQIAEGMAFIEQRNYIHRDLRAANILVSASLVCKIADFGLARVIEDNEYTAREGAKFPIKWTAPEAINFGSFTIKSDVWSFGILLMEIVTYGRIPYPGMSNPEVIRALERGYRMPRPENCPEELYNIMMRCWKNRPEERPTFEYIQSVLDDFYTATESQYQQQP

FAKLAARLYRKALARQLGVAA [MMI-0300]: the “% activity” value was found to be 132% in test [1]; 101% in [2]; 57% in test [3]; 45% in [4]; 33% in test [5]; 73% in test [6]. In addition, the “% activity” value is on record as 79% in [7]; 89% in test [8]; 89% in test [9]; 25% in test [10]; 72% in [11]; 20% in [12]. Moreover, the “% activity” value was determined as 88% in test [13], 37% in test [14], 82% in test [15] and 79% in [16].
Turning to YARAAARQARAKALNRQLGVA [MMI-0200], the “% activity” value in test [2] stood at 99%; in test [3], 110%; in test [4], 92%; in test [5], 74%; in [7], 98%; in [8], 100%. Moreover, the “% activity” value in test [9] is 90%; in test [10], 74%; in [12] it was 74%; in test [13], 101%; in test [14], 67%; in [15], 98%.
In the case of KAFAKLAARLYRKALARQLGVAA [MMI-0400], the “% activity” value came to 120% in [1]; 89% in [2]; 67% in test [3]; 37% in test [4]; 27% in [5]; 90% in [6]. Also, the “% activity” value in test [7] was found to be 79%; in [8], 86%; in [9] it was 70%; in test [10] it was 22%; in test [11], 72%; in test [12], 16%. Further, the “% activity” value in test [13] is listed as 76%; in test [14], 18%; in [15], 85%; in [16] it was 73%.
Consider HRRIKAWLKKIKALARQLGVAA [MMI-0500], for which the “% activity” value in test [1] worked out at 110%; in test [2] it was 51%; in test [3], 30%; in test [4] it was 14%; in test [5], 7%; in test [6], 38%. Besides, the “% activity” value was determined as 46% in [7]; 3% in test [8]; 171% in test [9]; 15% in test [10]; 78% in test [11]; 23% in [12]. Moreover, the “% activity” value was determined as 62% in test [13], 7% in [14], 49% in [15] and 17% in test [16].
